From patent publication US11459389 (dated 2022) come the findings set out here.

As a reminder, the Kd is the concentration at which binding is half-saturated. A higher Kd goes with weaker binding.

Common to all, as to test: FACS
In general terms: Flow cytometry measures light scatter and fluorescence of single cells or particles in a stream.

One assay concerns the target T1, human Clec7A (human, UniProt Q9BXN2).
T1 chain: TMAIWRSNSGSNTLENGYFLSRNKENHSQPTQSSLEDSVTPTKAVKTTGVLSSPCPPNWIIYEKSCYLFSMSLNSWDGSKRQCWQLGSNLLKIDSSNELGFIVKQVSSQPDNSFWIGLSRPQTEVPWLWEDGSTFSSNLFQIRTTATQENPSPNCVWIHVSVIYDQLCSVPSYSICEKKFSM

Another assay addresses T2, human Clec5A (human, UniProt Q9NY25).
T2 chain: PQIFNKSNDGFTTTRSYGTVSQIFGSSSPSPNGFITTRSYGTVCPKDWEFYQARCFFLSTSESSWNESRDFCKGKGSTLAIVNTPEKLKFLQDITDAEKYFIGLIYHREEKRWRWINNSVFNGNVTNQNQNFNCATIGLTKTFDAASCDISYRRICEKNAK

In the next assay the target is T3, human KLRG1 (human, UniProt Q96E93).
T3 chain: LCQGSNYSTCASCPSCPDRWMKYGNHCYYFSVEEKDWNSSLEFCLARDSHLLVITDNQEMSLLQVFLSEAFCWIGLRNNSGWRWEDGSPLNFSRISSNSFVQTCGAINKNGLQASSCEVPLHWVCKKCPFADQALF

Another assay deals with T4, human CD209 (human, UniProt Q9NNX6).
T4 chain: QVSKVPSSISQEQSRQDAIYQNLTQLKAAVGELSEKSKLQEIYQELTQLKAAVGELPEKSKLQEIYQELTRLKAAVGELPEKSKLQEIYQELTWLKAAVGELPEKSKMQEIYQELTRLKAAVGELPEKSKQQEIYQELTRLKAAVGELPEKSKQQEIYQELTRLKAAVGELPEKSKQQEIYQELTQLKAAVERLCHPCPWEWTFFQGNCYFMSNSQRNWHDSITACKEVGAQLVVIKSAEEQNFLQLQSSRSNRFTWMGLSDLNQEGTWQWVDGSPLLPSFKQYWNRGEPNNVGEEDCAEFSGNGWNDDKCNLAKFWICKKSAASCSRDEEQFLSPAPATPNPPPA

A further assay concerns the target T5, human Clec12B (human, UniProt Q2HXU8).
T5 chain: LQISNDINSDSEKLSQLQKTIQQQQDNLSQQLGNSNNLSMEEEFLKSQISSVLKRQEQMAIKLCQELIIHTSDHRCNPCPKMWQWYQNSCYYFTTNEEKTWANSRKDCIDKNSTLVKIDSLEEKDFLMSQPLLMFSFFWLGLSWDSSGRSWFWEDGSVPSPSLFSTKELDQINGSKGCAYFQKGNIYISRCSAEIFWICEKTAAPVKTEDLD

A further assay deals with human Clec9A (human, UniProt Q6UXN8).
The target in another assay is T6, human CD94 (human, UniProt Q13241).
T6 chain: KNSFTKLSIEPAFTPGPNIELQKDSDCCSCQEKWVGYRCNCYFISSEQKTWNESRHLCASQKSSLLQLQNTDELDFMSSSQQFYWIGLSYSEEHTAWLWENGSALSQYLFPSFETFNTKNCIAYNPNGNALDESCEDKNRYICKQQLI

In a further assay the target is T7, human KLRF1 (human, UniProt Q9NZS2).
T7 chain: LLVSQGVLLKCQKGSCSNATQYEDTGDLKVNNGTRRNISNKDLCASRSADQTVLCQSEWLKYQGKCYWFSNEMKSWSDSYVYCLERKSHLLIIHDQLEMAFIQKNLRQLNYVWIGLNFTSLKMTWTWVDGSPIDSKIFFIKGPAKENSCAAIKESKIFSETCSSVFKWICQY

Another assay addresses T8, human Clec4E (human, UniProt Q9ULY5).
T8 chain: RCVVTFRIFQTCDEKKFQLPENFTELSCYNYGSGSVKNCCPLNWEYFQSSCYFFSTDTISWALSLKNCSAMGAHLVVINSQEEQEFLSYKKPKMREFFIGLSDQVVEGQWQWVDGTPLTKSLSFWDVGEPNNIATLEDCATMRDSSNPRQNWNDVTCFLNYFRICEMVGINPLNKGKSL

Another assay addresses T9, human Clec10A (human, UniProt Q8IUN9).
T9 chain: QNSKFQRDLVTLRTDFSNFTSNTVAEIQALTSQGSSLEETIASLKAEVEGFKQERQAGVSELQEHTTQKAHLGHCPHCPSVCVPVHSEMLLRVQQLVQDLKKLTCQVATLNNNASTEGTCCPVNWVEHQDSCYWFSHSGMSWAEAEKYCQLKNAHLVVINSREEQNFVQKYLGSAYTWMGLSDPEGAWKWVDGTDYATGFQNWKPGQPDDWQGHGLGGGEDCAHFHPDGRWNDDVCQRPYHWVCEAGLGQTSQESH

Another assay concerns the target T10, human KLRF2 (human, UniProt D3W0D1).
T10 chain: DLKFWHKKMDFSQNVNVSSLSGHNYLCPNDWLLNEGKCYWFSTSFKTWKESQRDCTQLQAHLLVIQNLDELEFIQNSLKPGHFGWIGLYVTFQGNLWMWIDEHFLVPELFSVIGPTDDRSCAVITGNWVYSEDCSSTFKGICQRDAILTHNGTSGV

The next assay deals with human CD161 (human, UniProt Q12918).

Sequence of human Clec9A (Q6UXN8 57-241): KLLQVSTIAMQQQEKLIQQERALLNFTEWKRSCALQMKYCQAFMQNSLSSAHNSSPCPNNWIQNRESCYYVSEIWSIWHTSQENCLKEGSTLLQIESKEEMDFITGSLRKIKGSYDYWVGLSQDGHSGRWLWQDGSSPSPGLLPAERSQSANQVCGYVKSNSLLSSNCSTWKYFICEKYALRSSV

B1: KW1.3.12 (antibody)
chain 1: EVQLVESGGGLVQPGGSLRLSCAASGFTFSSYAMSWVRQAPGKGLEWVSTISGSGGSTYYADSVKGRFTISRDNSRNTLYLQMNSLRAEDTAVYYCARGGLIPSGFDYWGQGTLVTVSS
chain 2: DIQMTQSPSSLSASVGDRVTITCRASQSISSYLNWYQQKPGKAPKLLIYAASSLLSGVPSRFSGSGSGTDFTLTISSLQPEDFATYYCQQTYSAPLTFGQGTKVEIK
B1: the binding result with human Clec7A, with human Clec5A, with human KLRG1, in the assay with human CD209, in the assay with human Clec12B and in the assay with human Clec9A was “no binding” each time. The binding result with human CD94, with human KLRF1, with human Clec4E, in the assay with human Clec10A and in the assay with human KLRF2 was “no binding” in each case.

B2: KW7.3.7 (antibody)
chain 1: EVQLVESGGGLVQPGGSLRLSCAASGFTFSSYAMSWVRQAPGKGLEWVSATSGSGGSTYYADSAKGRFTISRDNSKNTLYLQMNSLRAEDTAVYYCARGGYLPDAFDYWGRGTLVTVSS
chain 2: DIQMTQSPSSLSASVGDRVTITCWASQSISSYLNWYQQEPGKAPKLLIYAASSLQSGVPSRFSGSGSGTDFTLTISSLQPEDFATYYCQQTYSTPLTFGQGTKVEIK
With B2, the binding result with human Clec7A, with human Clec5A, with human KLRG1, with human CD209, with human Clec12B and with human Clec9A was “no binding” each time. Further, the binding result with human CD94, in the assay with human KLRF1, with human Clec4E, with human Clec10A and in the assay with human KLRF2 was “no binding” throughout.

B3: KW1.2.1 (antibody)
chain 1: EVQLVESGGGLVQPGGSLRLSCAASGSTFSSYAMSWVRQAPGKGLEWVSTISGSGGSTYYADSVKGRFTISRDNSRNTLYLQMNSLRAEDTAVYYCARGGLIPSGFDYWGQGTLVTVSS
chain 2: DIQMTQSPSSLSASVGDRVTITCRASQSISSYLNWYQQKPGKAPKLLIYAASSLLSGVPSRFSGGGSGTDFTLTISSLQPEDFATYYCQQTYSTPLTFGQGTKVEIK
As to B3, binding with human CD161 was characterised by a dissociation constant (Kd) of 0.233 nM.

B4: KM12.4.7 (antibody)
chain 1: EVQLVESGGGLVQPGGSLRLPCAASGFTFSSYAMSWIRQAPGKGLEWVSAISGSGGSIYYADSVKGRFTISRDNSKNTLYLQMDSLRAEDTAVYYCARGYSDSYFYGPYYTFDYWGQGTLVTVSS
chain 2: not shown
As to B4, the binding result with human Clec7A, with human Clec5A, with human KLRG1, with human CD209, with human Clec12B and in the assay with human Clec9A was “no binding” in each case. For the same molecule, the binding result with human CD94, with human KLRF1, in the assay with human Clec4E, in the assay with human Clec10A and with human KLRF2 was “no binding” throughout.
